Where a chain is given by its changes, count along the chain named.
How the values were obtained:
Assay in all cases: cleavage_in_vitro
[1] = biological target: T1, SalI-HF R107A (Streptomyces albus G) (UniProt Q53608); conditions: NEB4, 37 C, Mg2+
T1 sequence: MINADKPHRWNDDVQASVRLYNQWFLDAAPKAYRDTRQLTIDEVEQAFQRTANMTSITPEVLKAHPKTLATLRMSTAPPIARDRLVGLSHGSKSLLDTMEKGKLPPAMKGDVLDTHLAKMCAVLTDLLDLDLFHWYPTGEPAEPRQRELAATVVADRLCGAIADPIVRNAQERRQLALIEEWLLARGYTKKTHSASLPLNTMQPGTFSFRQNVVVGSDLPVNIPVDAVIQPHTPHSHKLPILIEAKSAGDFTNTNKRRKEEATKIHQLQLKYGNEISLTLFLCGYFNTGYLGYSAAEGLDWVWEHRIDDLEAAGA

[2] = biological target: T2, SalI (Streptomyces albus G) (UniProt Q53608); conditions: NEB4, 37 C, Mg2+
T2 sequence: T1 sequence with A107R

[3] = system: T3, BspQI-HF K279P/R388F (Bacillus sphaericus); conditions: NEB4, 50 C, Mg2+
T3 sequence: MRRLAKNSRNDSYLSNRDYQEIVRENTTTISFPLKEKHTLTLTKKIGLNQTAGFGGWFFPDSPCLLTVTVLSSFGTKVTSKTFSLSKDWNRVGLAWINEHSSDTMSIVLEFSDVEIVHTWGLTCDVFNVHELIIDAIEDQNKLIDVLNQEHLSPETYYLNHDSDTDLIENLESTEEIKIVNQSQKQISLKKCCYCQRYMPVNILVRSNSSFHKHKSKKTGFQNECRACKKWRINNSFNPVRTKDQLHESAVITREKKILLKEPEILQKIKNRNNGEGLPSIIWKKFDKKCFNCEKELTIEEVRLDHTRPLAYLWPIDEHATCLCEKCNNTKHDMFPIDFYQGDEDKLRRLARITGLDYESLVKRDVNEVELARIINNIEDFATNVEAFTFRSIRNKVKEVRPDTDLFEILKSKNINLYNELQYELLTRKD

[4] = biological target: T4, PvuII-HF T46G (Proteus vulgaris) (UniProt P23657); conditions: NEB4, 37 C, Mg2+
T4 sequence: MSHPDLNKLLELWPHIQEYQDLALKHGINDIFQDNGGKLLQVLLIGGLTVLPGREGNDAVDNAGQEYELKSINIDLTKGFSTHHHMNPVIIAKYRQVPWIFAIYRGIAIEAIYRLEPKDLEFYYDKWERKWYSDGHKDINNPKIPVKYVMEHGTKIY

[5] = system: T5, AvrII (Anabaena variabilis); conditions: NEB4, 37 C, Mg2+
T5 sequence: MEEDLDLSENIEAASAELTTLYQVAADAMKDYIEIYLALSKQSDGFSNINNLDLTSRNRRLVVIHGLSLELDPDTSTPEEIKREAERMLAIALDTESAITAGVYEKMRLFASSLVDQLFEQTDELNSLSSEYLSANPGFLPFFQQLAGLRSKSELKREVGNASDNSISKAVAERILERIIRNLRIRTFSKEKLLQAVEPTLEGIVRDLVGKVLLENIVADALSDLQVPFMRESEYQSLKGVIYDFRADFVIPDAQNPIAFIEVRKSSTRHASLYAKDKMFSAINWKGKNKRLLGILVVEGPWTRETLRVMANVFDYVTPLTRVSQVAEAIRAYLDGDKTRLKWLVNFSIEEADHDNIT

[6] = system: T6, AvrII-HF Y104F (Anabaena variabilis); conditions: NEB4, 37 C, Mg2+
T6 sequence: T5 sequence with Y104F

lambda DNA HindIII digest
activity (fidelity index) [1]: > 32000 | activity (fidelity index) [2]: 1

pUC19
activity (fidelity index) [3]: > 4000

pBR322
activity (fidelity index) [4]: 500

T7 DNA
activity (fidelity index) [5]: 32 | activity (fidelity index) [6]: > 1000

Source: patent US20130115677
